Assay: soluble fraction after stress (log2 fold change); higher = more stays soluble; pooled small domains, quantitative proteomics
Details: stress: pH 4
Procedure, shortened: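 Aggregation propensity is read out as the fold change in how much of each domain remains soluble after acid stress. The custom small-domain libraries were pooled, held at pH 4 and analysed with high-throughput quantitative proteomics. On the log2 scale used, higher values mean more of the domain stayed soluble.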

Row | Sequence | soluble fraction (log2)
1 | HMTKLLITNYERNVLINSYLLKNTPELDDIRRLLVHNKHISENDVSTEMARRIKKHKADWLRVT | 0.00962
2 | HMSTDKIDIVSSAILSSLKDNDGFIGLTDKSPPPEIYTAFRVSKKVFKQAIGALYKQRRITLESSGIRLIS | -0.107
3 | HMSSESIIIKKLIEEFIHNENKYSPLSDEKLSYLLKNKGFSVARRTVAKYRDELGILSTRERKIKI | 0.393
4 | HMKELFETLPDVLDAKLLASALSISKAGAYQLLNRPDFPTLQVGGWKLVTKQKLALWMEQHTN | -0.511
5 | HMYSYSGSVSNTHDVPVSVVLKDAEGVAIASWDLQAKQSLNISAKDIATSSGTIEITGDGVSETKTVTFTK | -0.229
6 | HMITDQQKEQLSSLLKQAEAALAKAAANDQVLAAHKDEAVELLKSTSATSADAADLINELTELLKPYQ | -0.605
7 | HMTDYKTNLQEFLQQDGEVEIEYKLLAEVGPSHARQFEVDVMMGDRVLGSGVGRNKKAAEQAAAKVALSKL | -0.375
8 | HMAKQEPTDNGYDIYKVTASVLNVRNGAGTSYAVAYQLSKEDYVEVVSIDKGWAKLKDGKYVSADWITLYK | -0.596
9 | HMNTLPTDELMKYGIINEDLSFSKKLNADDIQKFLQGYTIVADNDKNRATFQLTENNTKLKVIFLER | -1.69
10 | HMFNVKAYEKAVKSYITKRKPLGEALDEEIMDELSVKFGIVDDALEDLFKQIQDAGISIVDKDGNPSPLAL | -1.78
11 | HMTASVTDAMFELIDELPKLGKTSFRQLTADLVDRLQVVVTFLAVLELYKQGHVELDQSERFGDITVVWTG | -1.11
12 | HMLIADSDALRSQIESILNGNPNEVASFRAGKESLMGWFVGQVMRSTGGKADPKRTRELLQELLTK | -0.0841
13 | HMTAKRELILRVFMDSNGKLLSIDDVFMEMRKKRSHRTSKMTVKRAIDLLVDLGLLKEVLFDDDNIKYEYV | -0.105
14 | HMETYNLDVGDSAVLQYQNVSRISVGNPDVLDAIPLDKSQILLTGKATGGAALIVWDSKGMHMEKVMVHPA | -0.152
15 | HMSVLSVASKNQAINPGQVVALLKDGIKLNDDGRVEILDNNNNIRYNEKGNLLSIEERVKEFLDANPHFRQ | -0.134
16 | HMDTVEALTEQLKKLDKRGEGQIPAPEFKQYMMNMGGKMTAEELDEMMKVADPGKEGVVNIAEFADAL | -0.229
17 | HMSDTMTVTNVKYAIYLRSTPSEASDANIIMEIPVGSKVTYLDTPNNTFYKISYGGTVGYSKQIYLTF | -0.482
18 | HMKRIHLSDEEKTDLESLHYSSNDGKQRDRIKAVLLRSEGWTVPMISQALRIHETTVTRYLNDYREGKLKN | -0.143
19 | HMRSNQKVSQIAISQVLPGMVTAKNVYSRNDQLILNRETTLDSTKIAKIMFYAIESIYVYEPE | -0.6
20 | HMQTGRREALEAQLRETGGEAMLARLREIDPEAAARLHPADEKRVIRALEVYEETGKTITQHNLETKAVPP | -0.0698
21 | HMVKTIINGEEKDFDAQDFQTFGDFLKKVIPEGQILKSLKINSKDVPIAFIDELKSATVDENITIEMELA | 0.315
22 | HMGTITKRTNPSGAVVWRAQIRINKADMPTYSESKTFSKKSLATEWLKRREAEIEANPDLIL | ≥ 0.43
23 | HMDHFFSKYDSIVNHTVQKKETLFGISKKYGLTINEVIKFNPGIQIDKLKRRSVLIIPLMKKN | -0.0453
24 | HMNTISTLEITTKKDIRILDESELLKSKSSKNNIFNYLLASGDFNLLKDKLNEIDEFSDEIISYQLN | -0.356
25 | HMKKTITISNYINVRDFATMSELPVNSILSVLMKNGIFVSLNEKIDFDTAWLVGSELGLEVKQKQG | -0.818

Row | Sequence | soluble fraction (log2)
26 | HMIDIDTILKKYKPGRRDELIPLMQEIQEVYGHLSEEAVVKIGTYVGLSTTKIYGLATFYDQFRF | -0.874
27 | HMLTRRQSEVLDFIRQFAESESMPPTLHEIAKGMGFSSDNAARDHVRALARKGAIDLVGGTSRGIRLR | -0.331
28 | HMLKLEPYTINEINSLQELYDLGNVRALETLISIYKDKNQVYDTRFYVLDILSKYDNPLIQEALEESITN | -1.89
29 | HMSTQYKTGHYKTTDALNLRASYSTSSNVLLTIPKGKTIVVTRVHNNEWGQVEYNGKTGWIYLEYTAYTES | -0.387
30 | HMVDGAHKQQAAVQALTPALKVLAAAPEGKKGQAIQALRAVLKQHGRWLDDATAQQVHEQLLAAGDAQGWQ | 0.331
31 | HMARSKSRQSSVLESVPGLGPSRRRNLLRHFGGLQGVVKAGVEDLMAVRGISRTLAETVYDHLHPGS | 0.22
32 | HMSSLREQVADALRAHLVSGRMRPGVLYSAPKLAAEFGVSATPVREAMLDLVSEGLVDVVRNKGFRVT | 0.018
33 | HMKDSIQIPNVVGMTIKDAQSQYGKSFSIIEQNRTESTKPAGTILEQTPAGGDTVSKRDNIIIRVVVSLG | 0.36
34 | HMRLTIAQLSEKTGVPERTIRYYIDRGLVPSAHGERRGAWYDTVHLEPLLRIQQWREAGLSLEAIADLLR | -1.17
35 | HMYEDSNQSLNFFAIKFIKEKNIKISQETTNLIVERARGDRGNLINELQKLEALSLTRKKITQEDVFNLTN | 0.22
36 | HMKFPPELVEFIEGLSLLKPPLNYATVHRRAEKLAIKKGWASPSYSTVRNIIRKLSPALTTLAHEG | 0.22
37 | HMEKEFLFNGGKVVMNYEADRIQIMHDTKPGQDVITLMKKNGFKWSPFNKAWQRQITANAIYTTKHLINQ | -0.6
38 | HMQNEIQQLAIDLIARAHKSGASDIHIVDTGTYTRIKFRVLGLLREDSQMEAETGRQMISTIYGILG | -0.19
39 | HMRLEYLVDVEEISIKEYLMLLGLSRRLARKIKLYGKMYINHQEAFNYHLVKKGDLLTIEFDE | -2.21
40 | HMPIMDSDDKYEALGIPQEWIAVVKKAGYQTVEALKAVENPNKLHQELSVMNKKEKLGLAGLTPEMVKAWL | -0.301
41 | HMDVPVEVFMERIVTALREGRKTTFSELMEGKPERGKVIGTFLALLQLSKGQQIQIHQEQRTGEISIEGGA | -1.03
42 | HMVLSTRERMSNILATLKGGHFVNFSDLFTPEEGRLGVVVTFLAMLELIKESLLDIVQHEVLGPIHVKARV | 0.0323
43 | HMVSLTGEWRPSKDALDILITKGGINPNFIDDAVPEFILYWRDRGDVSNTWDSKFIQHVRRQWQFYTGI | -1.66
44 | HMGPSVGMTVGEMERDLIFRTLETVGDNRTKAADMLGISIRTLRNKLNEYREAGFEWPRKAG | -0.0611
45 | HMEKLLTTRQSQIFELAKRKGYWNIPREISITQLAQLTGSSKSTISVMLHAIESKIVDTFYDEI | -0.216
46 | HMRRKDIEFTNTMLEELYRHNSKWYDAVVRAYALEIPQKQIAEEMGIRLEAFQSMLFRAKKWIKTKYEADY | -0.432
47 | HMSYFNEYEVGDTIRVVNGPLADQISTITAIDKEKGLVNISTVFFGRENNVQVSINDIEKYN | -0.903
48 | HMDIDLNTIKKITLDDIHAFLSYLTTTYHSKAATRARKASSIRVFFNYLSAKANLIEVNPAQNLETPKLD | 0.0886
49 | HMSKNVTMPNLVGYSMRQAKAELLSRGLHLGKLIYVNDIATNNVISQLYRNAEIEPGVKIESESYVDLVVG | -0.631
50 | HMENYGEAITYIHGMIEDSSEKMLAASKALKVNANTLIKFMKDPYSVAAHIRDRIVENLANLEKAVKAI | -0.59

Row | Sequence | soluble fraction (log2)
51 | HMAKYEVVAKDIISRIKQNEFETTLKLPTEDEMIEYYQVSRNTVRSALKLLTSQGIIFSRQGSGFYIRQRS | -0.117
52 | HMDHKSQLQEWAQSTLGETPRYVTIAETGPDHDKELTVELIIGRKSYSIAKGKSKKQAEQSAARIALGLLM | -0.504
53 | HMLSYNINEESKSSIMNVNVLKNNFASIDVEKLQNIIFTTFKKYNYYLNDFSSMNLLLHLLIIVDREL | -0.172
54 | HMESRTQVYDFYKDLFREKRRPLRAEEMLSALKSQRGIVGVNQYQIIEQHGIVRLSGSGRSALYWDTDLGS | -0.746
55 | HMVDSVIGSVGRVTVDIDNVEALGQVKLGGMEWSARSTSGDPIPAGTEVRVDRVEGVKVFVTPV | -0.203
56 | HMFENPRALLEMMISLGNEQGLINMARDIVSAGEFRRLELAAGGDRRKLARMLIDHLVEVAPRLP | -0.585
57 | HMNDYNLTDREKEVLTFLFQGLEYKEIGMKMSVSPNTIRNHISNIYKKLHVTSKTQAIRVFLNN | -0.0426
58 | HMSIGLEELVGSHGEAITDLRPAGQVSIAARRISAVSEGDFINKGDSVEVLSVEGYRVMVRKLET | -0.4
59 | HMWGAYHDGQVVKFPKKVTVYVIDGQYKRPLANEFVLKFLNYKTSDIIIDKDGNLNNYKNGAVVEH | -0.332
60 | HMTPKTSVPKPGQTVVVRKGDTIYALARIHDITPADLIAWNRLDNPSQIYPGQVIRLYPQGA | 0.105
61 | HMGLKQADFEELASRIFTVLEEKSMTPAEIVRKLNLEPDRISIVIQYLLDEGKLNIKDGFINNSA | -0.773
62 | HMYLYHDLSDEAKAMGDEYVSVEHLVLALIRYPNNAVKELFREFGITRERFLQVLSTIRGNQRVTSDNPEA | -0.194
63 | HMPENESPEEKHARFRRFAEGLMARLDENESVRDILPELKVWLDDRELDRDDQRLARNLMLTAGKRE | -0.0664
64 | HMEPTAEQLKAIRQFASVNGRSWKSELRYLWETGAYHRAALGGADPGYLQQVRNQFGPGWLRAFKISK | -0.113
65 | HMSAVNLNDDEKAVYKSIKSGIRSLDELSLRTGMKIYELMAITVSLEMKGLVTKSPDGTLDAT | -0.0308
66 | HMRSGFAFSEEEIKHLDNIVSPLLIKGQSIHHISIFHKDEVMMSERTLYSYVNNGLFSARNIDMPRTVRMR | 0.218
67 | HMQFEIGDTVRVHVNIREGERERVQMFEGTVIAKRGSGVSETFTVRRVSYGVGVERVFPVNSPNV | 0.22
68 | HMAQWGFNGSEAGDLSFQQGDVIEVVEKVKDDWWRGRVLGSTEIGLFPS | -1.64
69 | HMFRDFSETLLRKLQAAGGFLPFTDKTDAEAIAEHFQVSKKTFKRAVGTLYKQRRILIDDEGITLIG | 0.252
70 | HMGEDFPYVAYATDSVRLRSKPSSSGDILAVIRQGDAVLITGSDGNYKIVEYEGRKGYVISAFLSQTP | -0.438
71 | HMIMTHSALLEKDGFDIVKVHFERPNDDGFDFLDMTLPGEIVYKSFGFSEDEILKLKRYAKNNSSLIWDF | -1.87
72 | HMILNWSEYTRSEIIELARDLSPDKYMIIDDINTYSKMKLLPSQAFIAEMFGSLRQFQKEAWGRE | -1.27
73 | HMDKESQTMFRLLTGVSGVGPKVGLAILSVLSPDRVVLAISAGDHKAFTAASGVGPKLGQRIVLELKDKVG | -0.557
74 | HMILPKFNQLLGQMGENIKLARKRRKLTAVQVSERAGIARSTLYLIEKGDASVSLGAYFNVLRVLG | -0.214
75 | HMLGARIAALRRQAGMNQGELAKKLGISPSTVGMYEQGRREPSAEMLVRLAEAFSVSTDFLLT | -0.0832

Reference: the domain aggregation screens of Martell et al. (2025)
